# Patent US20240166755A1, “CHIMERIC ANTIGEN RECEPTORS TARGETING CANCER” (University of Southern California, priority 2016, published 2024)
# Target: human MPL (thrombopoietin receptor) (human) (UniProt P40238)
# Assay: cell-based or functional assay
"GFP induction (%) in CAR-expressing Jurkat-NFAT-EGFP cells, target cell line HEL [%]","GFP induction (%) in CAR-expressing Jurkat-NFAT-EGFP cells, target cell line RAJI-Mpl [%]","GFP induction (%) in CAR-expressing Jurkat-NFAT-EGFP cells, target cell line RAJI-vector [%]",Binder
2,3,4,CD8SP-178-(vL-vH)-Myc-CD28z-T2A-PAC(031615-R04) (scFv) DIVMTQAAPSIPVTPGESVSISCRSDKSLLHSNGNTYLFWFLQRPGQSPQLLIYRMSNLASGVPDRFSGSGSGTAFTLRISGVEAEDVGVYYCMQHLEYPYTFGGGTKLEIKGGGGSGGGGSGGGGSQVQLQQSGPELVKPGASVKMSCKASGYAFSSSWLNWVRQRPGKGLEWIGRIYPGDGENHYNGKFKGKATLTADKSSSTGYMQLSSLTSEDSAVYFCASYYEGGYWGQGTLITVSATREQKLISEEDLKIEVMYPPPYLDNEKSNGTIIHVKGKHLCPSPLFPGPSKPFWVLVVVGGVLACYSLLVTVAFIIFWVRSKRSRLLHSDYMNMTPRRPGPTRKHYQPYAPPRDFAAYRSRVKFSRSADAPAYQQGQNQLYNELNLGRREEYDVLDKRRGRDPEMGGKPRRKNPQEGLYNELQKDKMAEAYSEIGMKGERRRGKGHDGLYQGLSTATKDTYDALHMQALPPRSSGSGEGRGSLLTCGDVEENPG
5,6,4,CD8SP-12E10-(vL-vH)-Myc-CD28z-T2A-PAC(031615-S03) (scFv) DQVQLQQSGPGLVKPSETLSLTCTVSGDSISSYYWSWIRQPPGKGLEWIGYIYYSGSTNYNPSLKSRVTISVDTSKSQFSLKLSSVTAADTAVYYCARGRYFDVWGRGTMVTSSGGGGSGGGGSGGGGSSSYVLTQPPSVSGSPGQSITISCTGTSSDVGGYNYVSWYQQHPGKAPKLMIYEGSKRPSGVSNRFSGSKSGNTASLTISGLQAEDEADYYCSSYTTRSTRVFGGGTKLTVLGAAATREQKLISEEDLKIEVMYPPPYLDNEKSNGTIIHVKGKHLCPSPLFPGPSKPFWVLVVVGGVLACYSLLVTVAFIIFWVRSKRSRLLHSDYMNMTPRRPGPTRKHYQPYAPPRDFAAYRSRVKFSRSADAPAYQQGQNQLYNELNLGRREEYDVLDKRRGRDPEMGGKPRRKNPQEGLYNELQKDKMAEAYSEIGMKGERRRGKGHDGLYQGLSTATKDTYDALHMQALPPRSSGSGEGRGSLLTCGDVEENPG
33,18,11,CD8SP-175-(vL-vH)-Myc-CD28z-T2A-PAC(031615-Q04) (scFv) DQIVLTQSPAIMSASPGEKVTISCSASSSVSYMYWYQQKPGSSPKPWIYRTSNLASGVPARFSGSGSGTSYSLTISNMEAEDAAAYYCQQYHSYPTTFGGGTKLEVKGGGGSGGGGSGGGGSEVQLVESGGGLVQPKGSLKLSCAASGFSFNTYAMNWVRQAPGKGLEWIAHIRSKSNNFATYYADSVKDRFSISRDASENILFLQMNNLKTEDTAMYYCVRQGGDFPMDYWGQGTSVTVSSTREQKLISEEDLKIEVMYPPPYLDNEKSNGTIIHVKGKHLCPSPLFPGPSKPFWVLVVVGGVLACYSLLVTVAFIIFWVRSKRSRLLHSDYMNMTPRRPGPTRKHYQPYAPPRDFAAYRSRVKFSRSADAPAYQQGQNQLYNELNLGRREEYDVLDKRRGRDPEMGGKPRRKNPQEGLYNELQKDKMAEAYSEIGMKGERRRGKGHDGLYQGLSTATKDTYDALHMQALPPRSSGSGEGRGSLLTCGDVEENPG
14,11,5,CD8SP-161-(vL-vH)-Myc-CD28z-T2A-PAC(021715-Z07) (scFv) DDIQMTQSSSSFSVSLGDRVTITCMASEDIYIRLAWYQQKPGNAPRLLISAATSLETGVPSRFSGSGSGKDYTLSITSLQTEDVGTYYCQQYWSSPWTFGGGTKLEINGGGGSGGGGSGGGGSDVQLQESGPGLVKPSQSLSLTCTVTGYSITSDYTWNWIRQFPGNKLEWMGYITYSGSTSYNPSLKSRNSITRDTSKNQFFLQLNSVTTEDTATYYCARLGRRYTMDYWGQGTSVTVSSTREQKLISEEDLKIEVMYPPPYLDNEKSNGTIIHVKGKHLCPSPLFPGPSKPFWVLVVVGGVLACYSLLVTVAFIIFWVRSKRSRLLHSDYMNMTPRRPGPTRKHYQPYAPPRDFAAYRSRVKFSRSADAPAYQQGQNQLYNELNLGRREEYDVLDKRRGRDPEMGGKPRRKNPQEGLYNELQKDKMAEAYSEIGMKGERRRGKGHDGLYQGLSTATKDTYDALHMQALPPRSSGSGEGRGSLLTCGDVEENPG
1,6,3,CD8SP-AB317-(vL-vH)-Myc-CD28z-T2A-PAC(031615-T04) (scFv) DIVLTQSPASLAVSLGQSVTISCRASESVEYYGTSLMQWYQQKPGQPPKLLIYGASNVESGVPARFSGSGSGTDFSLNIHPVEEDDIAMYFCQQSRKVPWTFGGGTKLEIKGGGGSGGGGSGGGGSEVKLVESGGGLVKPGGSRKLSCAASGFTFSSYTMSWVRQTPAKRLEWVATISSGSSTIYYADTVKGRFTISRDNAKNTLFLQMTSLRSEDTAMYYCARRWFLDCWGQGTTLTVSSTREQKLISEEDLKIEVMYPPPYLDNEKSNGTIIHVKGKHLCPSPLFPGPSKPFWVLVVVGGVLACYSLLVTVAFIIFWVRSKRSRLLHSDYMNMTPRRPGPTRKHYQPYAPPRDFAAYRSRVKFSRSADAPAYQQGQNQLYNELNLGRREEYDVLDKRRGRDPEMGGKPRRKNPQEGLYNELQKDKMAEAYSEIGMKGERRRGKGHDGLYQGLSTATKDTYDALHMQALPPRSSGSGEGRGSLLTCGDVEENPG
